Assay results published in patent US20250243277A1 (AVACTA LIFE SCIENCES, published 2025).

B1: Clone 200 (designed binder)
chain: MIPGGLSEAKPATPEIQEIVDKVKPQLEEKTGETYGKLEAVQYKTQVVYGPHHQTYAGTNYYIKVRAGDNKYMHLKVFKSLYALHINRWPEDLVLTGYQVDKNKDDELTGF
notes: His-tagged
B2: Clone 197 (designed binder)
chain: MIPGGLSEAKPATPEIQEIVDKVKPQLEEKTGETYGKLEAVQYKTQVVWKPQDSVNWGTNYYIKVRAGDNKYMHLKVFKSLDWDGAAGDAEDLVLTGYQVDKNKDDELTGF
notes: His-tagged
B3: Clone 17 (designed binder)
chain: MIPGGLSEAKPATPEIQEIVDKVKPQLEEKTGETYGKLEAVQYKTQVVIVYTIWNYVGTNYYIKVRAGDNKYMHLKVFKSLTPQTETEHEEDLVLTGYQVDKNKDDELTGF
notes: His-tagged
B4: Clone 193 (designed binder)
chain: MIPGGLSEAKPATPEIQEIVDKVKPQLEEKTGETYGKLEAVQYKTQVVLRHPVQDDDGTNYYIKVRAGDNKYMHLKVFKSLAGVNRWKWIEDLVLTGYQVDKNKDDELTGF
notes: His-tagged
B5: Clone 199 (designed binder)
chain: MIPGGLSEAKPATPEIQEIVDKVKPQLEEKTGETYGKLEAVQYKTQVVRDHELVNQWGTNYYIKVRAGDNKYMHLKVFKSLFGQPVQGNTEDLVLTGYQVDKNKDDELTGF
notes: His-tagged
B6: Clone 182 (designed binder)
chain: MIPGGLSEAKPATPEIQEIVDKVKPQLEEKTGETYGKLEAVQYKTQVVLKTNPSPSDGTNYYIKVRAGDNKYMHLKVFKSLAVFRQRLGVEDLVLTGYQVDKNKDDELTGF
notes: His-tagged
B7: Clone 186 (designed binder)
chain: MIPGGLSEAKPATPEIQEIVDKVKPQLEEKTGETYGKLEAVQYKTQVVYDNVKEYPWGTNYYIKVRAGDNKYMHLKVFKSLKWYDPTIRPEDLVLTGYQVDKNKDDELTGF
notes: His-tagged
B8: Clone 191 (designed binder)
chain: MIPGGLSEAKPATPEIQEIVDKVKPQLEEKTGETYGKLEAVQYKTQVVLRYHFPEFHGTNYYIKVRAGDNKYMHLKVFKSLNHLAIHELPEDLVLTGYQVDKNKDDELTGF
notes: His-tagged
B9: Clone 185 (designed binder)
chain: MIPGGLSEAKPATPEIQEIVDKVKPQLEEKTGETYGKLEAVQYKTQVVVVLFASGWEGTNYYIKVRAGDNKYMHLKVFKSLIQWRDHKPREDLVLTGYQVDKNKDDELTGF
notes: His-tagged
B10: Clone 18 (designed binder)
chain: MIPGGLSEAKPATPEIQEIVDKVKPQLEEKTGETYGKLEAVQYKTQVVEAHQDLHFWGTNYYIKVRAGDNKYMHLKVFKSLLTEHNKKHQERHLDHEDLVLTGYQVDKNKDDELTGF
notes: His-tagged
B11: Clone 198 (designed binder)
chain: MIPGGLSEAKPATPEIQEIVDKVKPQLEEKTGETYGKLEAVQYKTQVVSSPLHWELWHWSGTNYYIKVRAGDNKYMHLKVFKSLELNNKDQNDEDLVLTGYQVDKNKDDELTGF
notes: His-tagged
B12: Clone 178 (designed binder)
chain: MIPGGLSEAKPATPEIQEIVDKVKPQLEEKTGETYGKLEAVQYKTQVVDHLPHAKYWGTNYYIKVRAGDNKYMHLKVFKSLWYQPRWKVEEDLVLTGYQVDKNKDDELTGF
notes: His-tagged
B13: Clone 195 (designed binder)
chain: MIPGGLSEAKPATPEIQEIVDKVKPQLEEKTGETYGKLEAVQYKTQVVVGVGRDFPKGTNYYIKVRAGDNKYMHLKVFKSLYIHYLKVNEEDLVLTGYQVDKNKDDELTGF
notes: His-tagged
B14: Clone 169 (designed binder)
chain: MIPGGLSEAKPATPEIQEIVDKVKPQLEEKTGETYGKLEAVQYKTQVVYANIGPWLYGTNYYIKVRAGDNKYMHLKVFKSLFKHRQQLHYTEDLVLTGYQVDKNKDDELTGF
notes: His-tagged
B15: Clone 188 (designed binder)
chain: MIPGGLSEAKPATPEIQEIVDKVKPQLEEKTGETYGKLEAVQYKTQVVPQENAPWVLGTNYYIKVRAGDNKYMHLKVFKSLNWDQPDTVLEDLVLTGYQVDKNKDDELTGF
notes: His-tagged
B16: Clone 187 (designed binder)
chain: MIPGGLSEAKPATPEIQEIVDKVKPQLEEKTGETYGKLEAVQYKTQVVIQDWTVGWEGTNYYIKVRAGDNKYMHLKVFKSLRIGRSTNLWEDLVLTGYQVDKNKDDELTGF
notes: His-tagged
B17: Clone 254 (designed binder)
chain: MIPGGLSEAKPATPEIQEIVDKVKPQLEEKTGETYGKLEAVQYKTQVVISDVSVGWEGTNYYIKVRAGDNKYMHLKVFKSLRSGPAHVRREDLVLTGYQVDKNKDDELTGF
notes: His-tagged
B18: Clone 20 (designed binder)
chain: MIPGGLSEAKPATPEIQEIVDKVKPQLEEKTGETYGKLEAVQYKTQVVANSKWHYAFGTNYYIKVRAGDNKYMHLKVFKSLDNAIYRGPTEDLVLTGYQVDKNKDDELTGF
notes: His-tagged
B19: Clone 172 (designed binder)
chain: MIPGGLSEAKPATPEIQEIVDKVKPQLEEKTGETYGKLEAVQYKTQVVSVFQYTYKFGTNYYIKVRAGDNKYMHLKVFKSLNNKPPHNDLEDLVLTGYQVDKNKDDELTGF
notes: His-tagged
B20: Clone 170 (designed binder)
chain: MIPGGLSEAKPATPEIQEIVDKVKPQLEEKTGETYGKLEAVQYKTQVVHQFQEIKWFGTNYYIKVRAGDNKYMHLKVFKSLFHRTPGSTTEDLVLTGYQVDKNKDDELTGF
notes: His-tagged
B21: Clone 2 (designed binder)
chain: MIPGGLSEAKPATPEIQEIVDKVKPQLEEKTGETYGKLEAVQYKTQVVASFIDIGWHGTNYYIKVRAGDNKYMHLKVFKSLREGKHGRNKEDLVLTGYQVDKNKDDELTGF
notes: His-tagged
B22: Clone 36 (designed binder)
chain: MIPGGLSEAKPATPEIQEIVDKVKPQLEEKTGETYGKLEAVQYKTQVVWSFAQVGWHGTNYYIKVRAGDNKYMHLKVFKSLRRFEHLPFYEDLVLTGYQVDKNKDDELTGF
notes: His-tagged
B23: Clone 183 (designed binder)
chain: MIPGGLSEAKPATPEIQEIVDKVKPQLEEKTGETYGKLEAVQYKTQVVRQTDSVKWWGTNYYIKVRAGDNKYMHLKVFKSLWYNRYYNDFEDLVLTGYQVDKNKDDELTGF
notes: His-tagged
B24: Clone 49 (designed binder)
chain: MIPGGLSEAKPATPEIQEIVDKVKPQLEEKTGETYGKLEAVQYKTQVVKYYAIFDYKGTNYYIKVRAGDNKYMHLKVFKSLFKEKVRNSIEDLVLTGYQVDKNKDDELTGF
notes: His-tagged
B25: Clone 217 (designed binder)
chain: MIPGGLSEAKPATPEIQEIVDKVKPQLEEKTGETYGKLEAVQYKTQVVKKYVIFFYEGTNYYIKVRAGDNKYMHLKVFKSLFVNKGGSDDEDLVLTGYQVDKNKDDELTGF
notes: His-tagged
B26: Clone 181 (designed binder)
chain: MIPGGLSEAKPATPEIQEIVDKVKPQLEEKTGETYGKLEAVQYKTQVVKAYKVFNYIGTNYYIKVRAGDNKYMHLKVFKSLFKWDNGISDEDLVLTGYQVDKNKDDELTGF
notes: His-tagged
B27: Clone 81 (designed binder)
chain: MIPGGLSEAKPATPEIQEIVDKVKPQLEEKTGETYGKLEAVQYKTQVVKAYVIWSYKGTNYYIKVRAGDNKYMHLKVFKSLFYGEPRGKGEDLVLTGYQVDKNKDDELTGF
notes: His-tagged
B28: Clone 171 (designed binder)
chain: MIPGGLSEAKPATPEIQEIVDKVKPQLEEKTGETYGKLEAVQYKTQVVIDHQNHPTEGTNYYIKVRAGDNKYMHLKVFKSLWPWLHSTEQEDLVLTGYQVDKNKDDELTGF
notes: His-tagged
B29: Clone 177 (designed binder)
chain: MIPGGLSEAKPATPEIQEIVDKVKPQLEEKTGETYGKLEAVQYKTQVVISEDSWWPHGTNYYIKVRAGDNKYMHLKVFKSLNWFHQPWQREDLVLTGYQVDKNKDDELTGF
notes: His-tagged
B30: Clone 192 (designed binder)
chain: MIPGGLSEAKPATPEIQEIVDKVKPQLEEKTGETYGKLEAVQYKTQVVTENNSWWPIGTNYYIKVRAGDNKYMHLKVFKSLNWFSDEAPYEDLVLTGYQVDKNKDDELTGF
notes: His-tagged
B31: Clone 208 (designed binder)
chain: MIPGGLSEAKPATPEIQEIVDKVKPQLEEKTGETYGKLEAVQYKTQVVQWKKTQYFFGTNYYIKVRAGDNKYMHLKVFKSLRIGYLEFEIEDLVLTGYQVDKNKDDELTGF
notes: His-tagged
B32: Clone 180 (designed binder)
chain: MIPGGLSEAKPATPEIQEIVDKVKPQLEEKTGETYGKLEAVQYKTQVVLQGSRLPIEGTNYYIKVRAGDNKYMHLKVFKSLGWHNVTLPPEDLVLTGYQVDKNKDDELTGF
notes: His-tagged
B33: Clone 173 (designed binder)
chain: MIPGGLSEAKPATPEIQEIVDKVKPQLEEKTGETYGKLEAVQYKTQVVDWPSHAKFWGTNYYIKVRAGDNKYMHLKVFKSLFLPDKDDPFEDLVLTGYQVDKNKDDELTGF
notes: His-tagged

Target: T1, human PD-L1-Fc (R&D Systems) (human, UniProt Q9NZQ7 19-239)
T1 construct: Bought from R&D Systems; Biotinylated in-house for the phage selection; also called huPD-L1-Fc; human PD-L1-Fc antigen; not shown: Fc part of the bought fusion
T1 sequence (Q9NZQ7 19-239 limits assumed): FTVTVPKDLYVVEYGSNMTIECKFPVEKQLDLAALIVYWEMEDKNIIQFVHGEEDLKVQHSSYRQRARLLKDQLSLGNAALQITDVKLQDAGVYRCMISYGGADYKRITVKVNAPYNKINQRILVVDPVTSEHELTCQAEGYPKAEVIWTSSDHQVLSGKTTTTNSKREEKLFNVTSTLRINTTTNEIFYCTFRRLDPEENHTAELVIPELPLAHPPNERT
Assay: soluble Affimer ELISA

Binding result, binds:
B1
B2
B3
B4
B5
B6
B7
B8
B9
B10
B11
B12
B13
B14
B15
B16
B17
B18
B19
B20
B21
B22
B23
B24
B25
B26
B27
B28
B29
B30
B31
B32
B33
